Measured values from paper PMC11395145, “The Archetypal Gamma-Core Motif of Antimicrobial Cys-Rich Peptides Inhibits H^+-ATPases in Target Pathogens” (International Journal of Molecular Sciences, 2024).

Columns and labels:
[1] = system: P. aeruginosa cells; test: Cell membrane permeability assay (propidium iodide, flow cytometry); format: cell-based, Pseudomonas aeruginosa; details: 90 min, 37 °C, range of concentrations, PI 9 μM
Procedure: (§1) To determine whether Kal-1 and Kdp15 exert a permeabilizing effect on fungal or bacterial membranes, the cellular influx of the fluorescent nucleic-acid-binding dye propidium iodide (PI) was assessed. As PI itself cannot permeate through an intact phospholipid bilayer, only permeabilized cells take up PI, resulting in DNA intercalation and fluorescence.
(§2) Flow cytometry was used to assess the ability of peptides to permeabilize plasma membranes of cells in incorporation of the DNA intercalating dye propidium iodide (PI). C. albicans or P. aeruginosa cells (10^6 cells/mL) in Tris buffer were incubated with two-fold serially diluted peptides for 90 min at 37 °C and subsequently reincubated with PI (9 μM, final concentration) for 5 min. The suspensions were centrifuged at 1100× g for 10 min and subsequently washed with Tris buffer to remove any unbound PI. The peptide Lfpep was used to disrupt the cytoplasmic membrane (positive control). Cell fluorescence was monitored using a Cytomics FC500 Flow Cytometer (Beckman Coulter Life Sciences, Indianapolis, IN, USA). The PI fluorescence was excited at a wavelength of 488 nm and emission was registered at 610 nm. For each treatment, 20,000 events were measured. Data were acquired and analyzed using CytExpert 2.1 software. Results were expressed as the percentage of PI-positive cells with respect to the unstained cells (control). […]

[2] = system: Candida albicans ATCC 10231; test: Microbicidal (spread-plate cell viability) assay, candidacidal activity; format: cell-based
Procedure: (§3) First, we tested the antimicrobial activity of Kal-1 and a shorter Kal-1-derived peptide (Kdp15), both containing the complete γ-core signature of human lactoferrin, against C. albicans and P. aeruginosa. Microbicidal (cidal) activity was determined after 90 min of incubation (37 °C; pH 7.4) with a range of concentrations of each hLf-derived peptide.
(§4) Figure 1 Cell viability and membrane permeabilization assays. C. albicans or P. aeruginosa (10^6 cells/mL) were incubated (90 min, 37 °C) with each peptide/protein at the indicated concentrations. Aliquots were plated on SDA or […], and colonies were counted after 24–48 h (C. albicans) or 24 h (P. aeruginosa). At each point, samples were stained with propidium iodide (PI) and intracellular PI incorporation, indicative of membrane permeabilization, was quantified by flow cytometry. The relative cell viability (blue lines) and cellular permeabilization (red lines) were calculated as the percentage of untreated cells. Human lactoferrin (hLf) and the peptide Lfpep were used as negative and positive controls of cellular permeabilization, respectively.
Microbial susceptibility to the peptides was determined in a spread-plate assay as described previously. Briefly, two-fold serially diluted peptides were incubated (37 °C) with approximately 10^6 cells/mL in Tris buffer (10 mM Tris-HCl, pH 7.4). After 90 min of incubation with the peptides, aliquots were removed and plated in duplicate on an appropriate agar plate for each species (SDA for C. albicans, TSA for P. aeruginosa). The plates were incubated for 24–48 h at 30 °C (C. albicans) or 24 h at 37 °C (P. aeruginosa) for enumeration. The cell viability values, expressed as colony forming units (CFUs), were determined relative to incubation without added peptides and represent the mean ± standard deviation (±SD) of at least three independent determinations. For inhibition assays, the cell suspensions were preincubated (15 min at 37 °C) with the corresponding inhibitors before the addition of peptides. […]

[3] = system: Candida albicans ATCC 10231; details: used in control assays; cited from earlier work
Procedure: as §3, with “peptide. The hLf γ-core-containing peptides were microbicidal in a concentration-dependent way (Figure 1). […] The IC50 es ...” for “peptide.”

[4] = system: Pseudomonas aeruginosa 10145 (PAO1); details: used in control assays; cited from earlier work
Procedure: as §3, with “peptide. The hLf γ-core-containing peptides were microbicidal in a concentration-dependent way (Figure 1). […] The IC50 es ...” for “peptide.”

[5] = system: C. albicans cells; test: Measurement of intracellular ATP (BacTiter-Glo); format: cell-based, Candida albicans; details: C. albicans 10^6 cells/mL, candidacidal concentration, 90 min, 37 °C; BM2 0.25 μM
Procedure: Total ATP was measured by using the BacTiter-Glo^TM Microbial Cell Viability Assay (Promega Co., Madison, WI, USA) according to the manufacturer’s instructions. […] Aliquots (100 μL) were incubated (90 min at 37 °C) with kaliocin-1, Kdp15, or human lactoferrin and the BM2 peptide (positive control). One hundred microliters of incubation mix was transferred into a 96-well opaque white plate, mixed with an equal volume of the BacTiter-Glo reagent, and incubated for 15 min in the dark. The reagent used a thermostable luciferase to produce luminescence in an ATP-dependent manner. The emitted luminescence was detected by using a Varioskan Flash multimode reader (Thermo Scientific, Waltham, MA, USA) with a 10 s of shaking and 1 s integration time. A calibration curve was prepared for each experiment, with ATP standards ranging from 1 to 1000 nM. For assays performed in the presence of the BM2 peptide, samples were preincubated with 0.25 μM BM2 for 30 min at 37 °C. All the tests were performed in triplicate at least four times.

[6] = system: C. albicans cells; test: Cell membrane permeability assay (propidium iodide, flow cytometry); format: cell-based, Candida albicans; details: 90 min, 37 °C, range of concentrations, PI 9 μM
Procedure: as §1, §2

[7] = system: Pseudomonas aeruginosa 10145 (PAO1); test: Microbicidal (spread-plate cell viability) assay, pseudomonacidal activity; format: cell-based; details: Tris buffer with 50 mM KCl vs without
Procedure: as §3
as §4, with “Human lactoferrin (hLf) and the peptide Lfpep were used as negative and positive controls of cellular permeabilization, respectively.” left out
Microbial susceptibility to the peptides was determined in a spread-plate assay as described previously. […] The cell viability values, expressed as colony forming units (CFUs), were determined relative to incubation without added peptides and represent the mean ± standard deviation (±SD) of at least three independent determinations. […]

[8] = system: C. albicans cells; test: Oxygen consumption measurement (Clark-type electrode); format: cell-based, Candida albicans; details: 5 × 10^6 cells/mL, peptides at IC50, piericidin A 32 μM, at least 30 min, 25 °C
Procedure: (§5) Figure 3 Effect of cellular respiration on the microbicidal activity of hLf γ-core-containing peptides. (A,C) Oxygen consumption was measured in C. albicans and P. aeruginosa cellular suspensions in the absence (control) or the presence of kaliocin-1 (Kal-1), Kdp15, or human lactoferrin (hLf), and piericidin A (positive control). (B,D) Effect of cellular respiration on the microbicidal activity of hLf γ-core-containing peptides. Cells (10^6 cells/mL) were pre-incubated (15 min, 37 °C) with 32 μM piericidin A and incubated for 90 min at 37 °C with the peptides hLf or BM2. The cell viability was determined by means of the plate counting method. The results are the mean ± SD from duplicates of at least three independent experiments. * p < 0.05, ** p < 0.01, and *** p < 0.001 were used.
(§6) C. albicans or P. aeruginosa cells were grown to the mid-logarithmic phase, washed twice in Tris buffer, and resuspended in the same buffer, as described in [9, 10]. Briefly, cells (5 × 10^6 cells/mL) were pre-incubated for 15 min at 37 °C with the peptides (IC50). […] Oxygen consumption was measured using a Clark-type oxygen electrode (Dual digital-model 20, Rank Brothers Ltd., Cambridge, UK) in a closed jacketed chamber maintained at 25 °C. […] The viability of the cells was determined at 30 min by removing aliquots from the oxygen chambers and plating the subsequent dilutions on SDA or TSA plates.

[9] = system: P. aeruginosa cells; test: as above; format: cell-based, Pseudomonas aeruginosa; details: 5 × 10^6 cells/mL, peptides at IC50, piericidin A 32 μM, at least 30 min, 25 °C
Procedure: as §5, §6

B1: hLf: Recombinant human apo-lactoferrin, PM H^+-ATPase inhibitor control (protein, UniProt P02788 20-710, looked up)
Lactotransferrin: GRRRSVQWCAVSQPEATKCFQWQRNMRKVRGPPVSCIKRDSPIQCIQAIAENRADAVTLDGGFIYEAGLAPYKLRPVAAEVYGTERQPRTHYYAVAVVKKGGSFQLNELQGLKSCHTGLRRTAGWNVPIGTLRPFLNWTGPPEPIEAAVARFFSASCVPGADKGQFPNLCRLCAGTGENKCAFSSQEPYFSYSGAFKCLRDGAGDVAFIRESTVFEDLSDEAERDEYELLCPDNTRKPVDKFKDCHLARVPSHAVVARSVNGKEDAIWNLLRQAQEKFGKDKSPKFQLFGSPSGQKDLLFKDSAIGFSRVPPRIDSGLYLGSGYFTAIQNLRKSEEEVAARRARVVWCAVGEQELRKCNQWSGLSEGSVTCSSASTTEDCIALVLKGEADAMSLDGGYVYTAGKCGLVPVLAENYKSQQSSDPDPNCVDRPVEGYLAVAVVRRSDTSLTWNSVKGKKSCHTAVDRTAGWNIPMGLLFNQTGSCKFDEYFSQSCAPGSDPRSNLCALCIGDEQGENKCVPNSNERYYGYTGAFRCLAENAGDVAFVKDVTVLQNTDGNNNEAWAKDLKLADFALLCLDGKRKPVTEARSCHLAMAPNHAVVSRMDKVERLKQVLLHQQAKFGRNGSDCPDKFCLFQSETKNLLFNDNTECLARLHGKTTYEKYLGPQYVAGITNLKKCSTSPLLEACEFLRK
modifications: apo form
Q: Which results are given for B1?
A: PI fluorescent cells (plasma membrane permeabilization), P. aeruginosa [1]: not significantly increased; IC50 ([2]; 90 min, 37 °C, 10 mM Tris-HCl pH 7.4, 10^6 cells/mL, CFU plating, estimated, read-out: IC50 (concentration that caused 50% reduction in viable counts) against C. albicans): 3000 nM; effect of high external K^+ on candidacidal activity ([2]; Tris buffer with 50 mM KCl vs without): seemed to protect; effect of Tok1p K^+ channel block (TEA^+) on candidacidal activity ([2]; cells pre-incubated 15 min with 10 mM TEA^+): less susceptible; previously reported microbicidal concentration against C. albicans [3]: 5 µM; previously reported microbicidal concentration against P. aeruginosa [4]: 1 µM; increment in intracellular ATP (iATP) level compared to untreated control [5]: ~ 6 fold; PI fluorescent cells (plasma membrane permeabilization), C. albicans [6]: not significantly increased; effect of high external K^+ on pseudomonacidal activity [7]: seemed to protect; oxygen consumption of C. albicans in presence of the substance [8]: inability of the native protein hLf to inhibit; oxygen consumption of P. aeruginosa in presence of the substance [9]: inability of the native protein hLf to inhibit
